Laboratory results from the array DNA melting data of Ke et al..

Experiment: melting temperature; melt of duplexes
Conditions: sodium 0.0675 M; strand 1 µM

Substance	Tm
CGACGTGCATCATGTGCTG+CAGCACATACCGCACGTCG ((((((((...((((((((+))))))))...))))))))	46.6 °C
CGACGTGCATCATGTGCTG+CAGCACATACTGCACGTCG (((((((((..((((((((+))))))))..)))))))))	49.7 °C
CGACGTGCATCATGTGCTG+CAGCACATAGCGCACGTCG ((((((((...((((((((+))))))))...))))))))	48.2 °C
CGACGTGCATCATGTGCTG+CAGCACATATCGCACGTCG ((((((((...((((((((+))))))))...))))))))	47.4 °C
CGACGTGCATCATGTGCTG+CAGCACATATTGCACGTCG (((((((((..((((((((+))))))))..)))))))))	50.3 °C
CGACGTGCATCATGTGCTG+CAGCACATCCAGCACGTCG ((((((((...((((((((+))))))))...))))))))	46.6 °C
CGACGTGCATCATGTGCTG+CAGCACATCGAGCACGTCG ((((((((...((((((((+))))))))...))))))))	48.9 °C
CGACGTGCATCATGTGCTG+CAGCACATCGTGCACGTCG (((((((((..((((((((+))))))))..)))))))))	47.2 °C
CGACGTGCATCATGTGCTG+CAGCACATCTAGCACGTCG ((((((((...((((((((+))))))))...))))))))	47.3 °C
CGACGTGCATCATGTGCTG+CAGCACATCTCGCACGTCG ((((((((...((((((((+))))))))...))))))))	46.5 °C
CGACGTGCATCATGTGCTG+CAGCACATGAGGCACGTCG ((((((((.((((((((((+)))))))))).))))))))	60.8 °C
CGACGTGCATCATGTGCTG+CAGCACATGATGCACGTCG (((((((((((((((((((+)))))))))))))))))))	64.8 °C
CGACGTGCATCATGTGCTG+CAGCACATGGAGCACGTCG ((((((((..(((((((((+)))))))))..))))))))	55.5 °C
CGACGTGCATCATGTGCTG+CAGCACATGGGGCACGTCG ((((((((..(((((((((+)))))))))..))))))))	56.5 °C
CGACGTGCATCATGTGCTG+CAGCACATGGTGCACGTCG (((((((((.(((((((((+))))))))).)))))))))	60.1 °C
CGACGTGCATCATGTGCTG+CAGCACATGTGGCACGTCG ((((((((..(((((((((+)))))))))..))))))))	55 °C
CGACGTGCATCATGTGCTG+CAGCACATTCAGCACGTCG ((((((((...((((((((+))))))))...))))))))	47.8 °C
CGACGTGCATCATGTGCTG+CAGCACATTCCGCACGTCG ((((((((...((((((((+))))))))...))))))))	46.6 °C
CGACGTGCATCATGTGCTG+CAGCACATTGGGCACGTCG ((((((((...((((((((+))))))))...))))))))	50 °C
CGACGTGCATCATGTGCTG+CAGCACATTTTGCACGTCG (((((((((..((((((((+))))))))..)))))))))	50.7 °C
CGACGTGCATGATGTGCTG+CAGCACATAATGCACGTCG ((((((((((.((((((((+)))))))).))))))))))	56 °C
CGACGTGCATGATGTGCTG+CAGCACATAGCGCACGTCG ((((((((...((((((((+))))))))...))))))))	47.4 °C
CGACGTGCATGATGTGCTG+CAGCACATAGTGCACGTCG (((((((((..((((((((+))))))))..)))))))))	49.6 °C
CGACGTGCATGATGTGCTG+CAGCACATATGGCACGTCG ((((((((...((((((((+))))))))...))))))))	49.7 °C
CGACGTGCATGATGTGCTG+CAGCACATATTGCACGTCG (((((((((..((((((((+))))))))..)))))))))	52.3 °C
CGACGTGCATGATGTGCTG+CAGCACATCAAGCACGTCG ((((((((.((((((((((+)))))))))).))))))))	56.5 °C

Substance	Tm
CGACGTGCATGATGTGCTG+CAGCACATCGAGCACGTCG ((((((((..(((((((((+)))))))))..))))))))	56.1 °C
CGACGTGCATGATGTGCTG+CAGCACATCTTGCACGTCG (((((((((.(((((((((+))))))))).)))))))))	58.3 °C
CGACGTGCATGATGTGCTG+CAGCACATGACGCACGTCG ((((((((.(.((((((((+)))))))).).))))))))	46.2 °C
CGACGTGCATGATGTGCTG+CAGCACATGAGGCACGTCG ((((((((.(.((((((((+)))))))).).))))))))	52.6 °C
CGACGTGCATGATGTGCTG+CAGCACATGATGCACGTCG ((((((((((.((((((((+)))))))).))))))))))	56.8 °C
CGACGTGCATGATGTGCTG+CAGCACATGCGGCACGTCG ((((((((...((((((((+))))))))...))))))))	48 °C
CGACGTGCATGATGTGCTG+CAGCACATGGGGCACGTCG ((((((((...((((((((+))))))))...))))))))	50 °C
CGACGTGCATGATGTGCTG+CAGCACATGTTGCACGTCG (((((((((..((((((((+))))))))..)))))))))	52.2 °C
CGACGTGCATGATGTGCTG+CAGCACATTACGCACGTCG ((((((((.(.((((((((+)))))))).).))))))))	50.6 °C
CGACGTGCATGATGTGCTG+CAGCACATTAGGCACGTCG ((((((((.(.((((((((+)))))))).).))))))))	54 °C
CGACGTGCATGATGTGCTG+CAGCACATTCAGCACGTCG ((((((((...((((((((+))))))))...))))))))	51.1 °C
CGACGTGCATGATGTGCTG+CAGCACATTCGGCACGTCG ((((((((...((((((((+))))))))...))))))))	50.3 °C
CGACGTGCATGATGTGCTG+CAGCACATTGCGCACGTCG ((((((((...((((((((+))))))))...))))))))	49.1 °C
CGACGTGCATGATGTGCTG+CAGCACATTGTGCACGTCG (((((((((..((((((((+))))))))..)))))))))	53.2 °C
CGACGTGCATGATGTGCTG+CAGCACATTTAGCACGTCG ((((((((...((((((((+))))))))...))))))))	49.8 °C
CGACGTGCATGATGTGCTG+CAGCACATTTCGCACGTCG ((((((((...((((((((+))))))))...))))))))	48.7 °C
CGACGTGCATTATGTGCTG+CAGCACATAACGCACGTCG ((((((((.((((((((((+)))))))))).))))))))	53.8 °C
CGACGTGCATTATGTGCTG+CAGCACATAATGCACGTCG (((((((((((((((((((+)))))))))))))))))))	60.7 °C
CGACGTGCATTATGTGCTG+CAGCACATACTGCACGTCG (((((((((.(((((((((+))))))))).)))))))))	53.8 °C
CGACGTGCATTATGTGCTG+CAGCACATAGCGCACGTCG ((((((((..(((((((((+)))))))))..))))))))	49.4 °C
CGACGTGCATTATGTGCTG+CAGCACATAGGGCACGTCG ((((((((..(((((((((+)))))))))..))))))))	52 °C
CGACGTGCATTATGTGCTG+CAGCACATATTGCACGTCG (((((((((.(((((((((+))))))))).)))))))))	54.5 °C
CGACGTGCATTATGTGCTG+CAGCACATCAAGCACGTCG ((((((((.(.((((((((+)))))))).).))))))))	48.1 °C
CGACGTGCATTATGTGCTG+CAGCACATCCCGCACGTCG ((((((((...((((((((+))))))))...))))))))	46.1 °C
CGACGTGCATTATGTGCTG+CAGCACATCGGGCACGTCG ((((((((...((((((((+))))))))...))))))))	47 °C
CGACGTGCATTATGTGCTG+CAGCACATCTCGCACGTCG ((((((((...((((((((+))))))))...))))))))	47.1 °C
